# Measurements reported in the supplement of paper PMC9112550, “Optimization of the antimicrobial peptide Bac7 by deep mutational scanning” (BMC Biology, 2022).
# System: Escherichia coli TOP10
# Assay: shrunken log2 fold change of peptide-encoding DNA abundance (4.5 h post-induction vs induction); higher = less antimicrobial activity (less host growth inhibition)
# Conditions: time post-induction: 4.5 h; library: site-saturation at positions 5, 18, 19, 20
# 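Note: peptides expressed intracellularly from a pBAD plasmid library in pooled LB shake-flask culture, induced with 0.3% L-arabinose, DNA abundance read by NGS, three biological replicates, DESeq2 with apeglm shrinkage.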
sequence,measurement,value
RRIRSRPPRLPRPRPRPDEEPRP,shrunken log2 fold change,0.895
RRIRNRPPRLPRPRPRPEVQPRP,shrunken log2 fold change,0.0358
RRIRMRPPRLPRPRPRPCDLPRP,shrunken log2 fold change,0.041
RRIRFRPPRLPRPRPRPAIRPRP,shrunken log2 fold change,-0.32
RRIRPRPPRLPRPRPRPCVNPRP,shrunken log2 fold change,-0.0713
RRIRFRPPRLPRPRPRPEPNPRP,shrunken log2 fold change,0.256
RRIRFRPPRLPRPRPRPGMMPRP,shrunken log2 fold change,-0.216
RRIRPRPPRLPRPRPRPFPLPRP,shrunken log2 fold change,-0.332
RRIRARPPRLPRPRPRPAYYPRP,shrunken log2 fold change,-0.166
RRIRGRPPRLPRPRPRPMWMPRP,shrunken log2 fold change,0.118
RRIRDRPPRLPRPRPRPVQEPRP,shrunken log2 fold change,-0.0575
RRIRLRPPRLPRPRPRPYWFPRP,shrunken log2 fold change,-0.758
RRIRGRPPRLPRPRPRPTSRPRP,shrunken log2 fold change,0.336
RRIRERPPRLPRPRPRPMTYPRP,shrunken log2 fold change,-0.121
RRIRLRPPRLPRPRPRPCLAPRP,shrunken log2 fold change,-0.219
RRIRARPPRLPRPRPRPGMLPRP,shrunken log2 fold change,0.334
RRIRERPPRLPRPRPRPFKYPRP,shrunken log2 fold change,-0.0322
RRIRPRPPRLPRPRPRPIPTPRP,shrunken log2 fold change,0.00223
RRIRHRPPRLPRPRPRPRFGPRP,shrunken log2 fold change,0.0573
RRIRQRPPRLPRPRPRPETTPRP,shrunken log2 fold change,0.0178
RRIRGRPPRLPRPRPRPKQYPRP,shrunken log2 fold change,0.234
RRIRKRPPRLPRPRPRPHNLPRP,shrunken log2 fold change,0.0314
RRIRDRPPRLPRPRPRPPLMPRP,shrunken log2 fold change,0.325
RRIRFRPPRLPRPRPRPGDRPRP,shrunken log2 fold change,0.151
RRIRKRPPRLPRPRPRPSLQPRP,shrunken log2 fold change,0.447
RRIRCRPPRLPRPRPRPSAVPRP,shrunken log2 fold change,-0.0828
RRIRERPPRLPRPRPRPCPCPRP,shrunken log2 fold change,-0.341
RRIRKRPPRLPRPRPRPFIPPRP,shrunken log2 fold change,-0.543
RRIRWRPPRLPRPRPRPKRCPRP,shrunken log2 fold change,0.0577
RRIRVRPPRLPRPRPRPDCRPRP,shrunken log2 fold change,-0.0921
RRIRTRPPRLPRPRPRPWYGPRP,shrunken log2 fold change,-0.379
RRIRSRPPRLPRPRPRPCAVPRP,shrunken log2 fold change,-0.255
RRIRDRPPRLPRPRPRPTNYPRP,shrunken log2 fold change,-0.48
RRIRNRPPRLPRPRPRPKREPRP,shrunken log2 fold change,0.0191
RRIRRRPPRLPRPRPRPKLWPRP,shrunken log2 fold change,0.701
RRIRDRPPRLPRPRPRPYKKPRP,shrunken log2 fold change,0.00426
RRIRCRPPRLPRPRPRPEHYPRP,shrunken log2 fold change,-0.625
RRIRERPPRLPRPRPRPKERPRP,shrunken log2 fold change,0.547
RRIRVRPPRLPRPRPRPYETPRP,shrunken log2 fold change,0.0231
RRIRFRPPRLPRPRPRPFQLPRP,shrunken log2 fold change,-0.0751
RRIRVRPPRLPRPRPRPWDFPRP,shrunken log2 fold change,-0.0763
RRIRFRPPRLPRPRPRPYFTPRP,shrunken log2 fold change,-1.09
RRIRTRPPRLPRPRPRPDEVPRP,shrunken log2 fold change,-0.0587
RRIRPRPPRLPRPRPRPGLDPRP,shrunken log2 fold change,0.0198
RRIRHRPPRLPRPRPRPAHEPRP,shrunken log2 fold change,0.0538
RRIRRRPPRLPRPRPRPYQMPRP,shrunken log2 fold change,-0.0261
RRIRRRPPRLPRPRPRPVRVPRP,shrunken log2 fold change,0.791
RRIRHRPPRLPRPRPRPDKCPRP,shrunken log2 fold change,-0.0295
RRIRWRPPRLPRPRPRPYSAPRP,shrunken log2 fold change,-0.147
RRIRRRPPRLPRPRPRPIHRPRP,shrunken log2 fold change,-0.041
RRIRKRPPRLPRPRPRPNWCPRP,shrunken log2 fold change,-0.0436
RRIRSRPPRLPRPRPRPFAPPRP,shrunken log2 fold change,0.314
RRIRIRPPRLPRPRPRPIHWPRP,shrunken log2 fold change,-0.0782
RRIRTRPPRLPRPRPRPGPPPRP,shrunken log2 fold change,0.404
RRIRFRPPRLPRPRPRPDEYPRP,shrunken log2 fold change,-0.014
RRIRLRPPRLPRPRPRPGHGPRP,shrunken log2 fold change,-0.00133
RRIRLRPPRLPRPRPRPYHSPRP,shrunken log2 fold change,-0.018
RRIRTRPPRLPRPRPRPTMEPRP,shrunken log2 fold change,-0.489
RRIRWRPPRLPRPRPRPTYCPRP,shrunken log2 fold change,-0.126
RRIRHRPPRLPRPRPRPSGAPRP,shrunken log2 fold change,-0.0845
RRIRYRPPRLPRPRPRPAGTPRP,shrunken log2 fold change,-0.0595
RRIRIRPPRLPRPRPRPTHGPRP,shrunken log2 fold change,0.0479
RRIRKRPPRLPRPRPRPKSSPRP,shrunken log2 fold change,0.202
RRIRSRPPRLPRPRPRPWLNPRP,shrunken log2 fold change,-0.119
RRIRCRPPRLPRPRPRPLRYPRP,shrunken log2 fold change,0.246
RRIRARPPRLPRPRPRPDMVPRP,shrunken log2 fold change,0.308
RRIRNRPPRLPRPRPRPLEVPRP,shrunken log2 fold change,-0.118
RRIRGRPPRLPRPRPRPVYFPRP,shrunken log2 fold change,-0.0244
RRIRYRPPRLPRPRPRPRINPRP,shrunken log2 fold change,-0.196
RRIRGRPPRLPRPRPRPAFDPRP,shrunken log2 fold change,0.763
RRIRDRPPRLPRPRPRPRRNPRP,shrunken log2 fold change,0.225
RRIRHRPPRLPRPRPRPKHWPRP,shrunken log2 fold change,0.26
RRIRKRPPRLPRPRPRPIQHPRP,shrunken log2 fold change,-0.311
RRIRRRPPRLPRPRPRPKDSPRP,shrunken log2 fold change,0.191
RRIRNRPPRLPRPRPRPWPEPRP,shrunken log2 fold change,-0.0309
RRIRKRPPRLPRPRPRPIPQPRP,shrunken log2 fold change,-0.184
RRIRPRPPRLPRPRPRPMAVPRP,shrunken log2 fold change,0.0404
RRIRGRPPRLPRPRPRPDKNPRP,shrunken log2 fold change,0.32
RRIRDRPPRLPRPRPRPVTMPRP,shrunken log2 fold change,-0.228
RRIRGRPPRLPRPRPRPDEFPRP,shrunken log2 fold change,0.561
RRIRPRPPRLPRPRPRPTDEPRP,shrunken log2 fold change,-0.128
RRIRQRPPRLPRPRPRPLKAPRP,shrunken log2 fold change,-0.253
RRIRQRPPRLPRPRPRPGDKPRP,shrunken log2 fold change,-0.187
RRIRARPPRLPRPRPRPAKLPRP,shrunken log2 fold change,0.196
RRIRNRPPRLPRPRPRPYYNPRP,shrunken log2 fold change,-1.49
RRIRKRPPRLPRPRPRPHMGPRP,shrunken log2 fold change,-0.0935
RRIRVRPPRLPRPRPRPIAQPRP,shrunken log2 fold change,-0.061
RRIRLRPPRLPRPRPRPTGDPRP,shrunken log2 fold change,-0.00286
RRIRHRPPRLPRPRPRPRCMPRP,shrunken log2 fold change,-0.153
RRIRGRPPRLPRPRPRPFKTPRP,shrunken log2 fold change,-0.341
RRIRQRPPRLPRPRPRPFQHPRP,shrunken log2 fold change,-0.117
RRIRYRPPRLPRPRPRPVCTPRP,shrunken log2 fold change,-0.569
RRIRMRPPRLPRPRPRPINLPRP,shrunken log2 fold change,-0.0139
RRIRCRPPRLPRPRPRPRLHPRP,shrunken log2 fold change,-0.0571
RRIRNRPPRLPRPRPRPKQNPRP,shrunken log2 fold change,0.0598
RRIRPRPPRLPRPRPRPLHEPRP,shrunken log2 fold change,0.236
RRIRWRPPRLPRPRPRPINAPRP,shrunken log2 fold change,0.252
RRIRFRPPRLPRPRPRPETFPRP,shrunken log2 fold change,-0.0396
RRIRPRPPRLPRPRPRPNCTPRP,shrunken log2 fold change,-0.0727
RRIRARPPRLPRPRPRPTSIPRP,shrunken log2 fold change,0.109
RRIRNRPPRLPRPRPRPGICPRP,shrunken log2 fold change,0.122
RRIRMRPPRLPRPRPRPEAWPRP,shrunken log2 fold change,2.15
RRIRPRPPRLPRPRPRPDWSPRP,shrunken log2 fold change,-0.195
RRIRSRPPRLPRPRPRPFYVPRP,shrunken log2 fold change,-0.546
RRIRSRPPRLPRPRPRPGCPPRP,shrunken log2 fold change,0.18
RRIRVRPPRLPRPRPRPNSAPRP,shrunken log2 fold change,0.198
RRIRWRPPRLPRPRPRPHHHPRP,shrunken log2 fold change,-0.428
RRIRGRPPRLPRPRPRPEVSPRP,shrunken log2 fold change,0.372
RRIRLRPPRLPRPRPRPGHHPRP,shrunken log2 fold change,-0.2
RRIRTRPPRLPRPRPRPKHTPRP,shrunken log2 fold change,-0.0343
RRIRLRPPRLPRPRPRPDVIPRP,shrunken log2 fold change,-0.161
RRIRNRPPRLPRPRPRPGMYPRP,shrunken log2 fold change,-0.242
RRIRKRPPRLPRPRPRPAQKPRP,shrunken log2 fold change,-0.0358
RRIRTRPPRLPRPRPRPPPLPRP,shrunken log2 fold change,0.352
RRIRIRPPRLPRPRPRPLVWPRP,shrunken log2 fold change,0.0428
RRIRWRPPRLPRPRPRPELPPRP,shrunken log2 fold change,0.243
RRIRLRPPRLPRPRPRPMSEPRP,shrunken log2 fold change,-0.0383
RRIRARPPRLPRPRPRPDHFPRP,shrunken log2 fold change,-0.148
RRIRRRPPRLPRPRPRPWNYPRP,shrunken log2 fold change,-0.242
RRIRERPPRLPRPRPRPPSIPRP,shrunken log2 fold change,-0.0171
RRIRKRPPRLPRPRPRPILVPRP,shrunken log2 fold change,0.0199
RRIRSRPPRLPRPRPRPFWMPRP,shrunken log2 fold change,-0.293
RRIRQRPPRLPRPRPRPWYWPRP,shrunken log2 fold change,-0.468
RRIRDRPPRLPRPRPRPIEYPRP,shrunken log2 fold change,-0.029
RRIRHRPPRLPRPRPRPYHPPRP,shrunken log2 fold change,-0.00776
